{"source": "patent US20030186334A1", "about": "“KTS-disintegrins” (Temple University - Of the Commonwealth System of Higher …, priority 2001, published 2003)", "key": {"[1]": {"molecular_target": "human α1β1 integrin (human) (UniProt P56199)", "sequence (P56199 29-1179, chain 1 of 2)": "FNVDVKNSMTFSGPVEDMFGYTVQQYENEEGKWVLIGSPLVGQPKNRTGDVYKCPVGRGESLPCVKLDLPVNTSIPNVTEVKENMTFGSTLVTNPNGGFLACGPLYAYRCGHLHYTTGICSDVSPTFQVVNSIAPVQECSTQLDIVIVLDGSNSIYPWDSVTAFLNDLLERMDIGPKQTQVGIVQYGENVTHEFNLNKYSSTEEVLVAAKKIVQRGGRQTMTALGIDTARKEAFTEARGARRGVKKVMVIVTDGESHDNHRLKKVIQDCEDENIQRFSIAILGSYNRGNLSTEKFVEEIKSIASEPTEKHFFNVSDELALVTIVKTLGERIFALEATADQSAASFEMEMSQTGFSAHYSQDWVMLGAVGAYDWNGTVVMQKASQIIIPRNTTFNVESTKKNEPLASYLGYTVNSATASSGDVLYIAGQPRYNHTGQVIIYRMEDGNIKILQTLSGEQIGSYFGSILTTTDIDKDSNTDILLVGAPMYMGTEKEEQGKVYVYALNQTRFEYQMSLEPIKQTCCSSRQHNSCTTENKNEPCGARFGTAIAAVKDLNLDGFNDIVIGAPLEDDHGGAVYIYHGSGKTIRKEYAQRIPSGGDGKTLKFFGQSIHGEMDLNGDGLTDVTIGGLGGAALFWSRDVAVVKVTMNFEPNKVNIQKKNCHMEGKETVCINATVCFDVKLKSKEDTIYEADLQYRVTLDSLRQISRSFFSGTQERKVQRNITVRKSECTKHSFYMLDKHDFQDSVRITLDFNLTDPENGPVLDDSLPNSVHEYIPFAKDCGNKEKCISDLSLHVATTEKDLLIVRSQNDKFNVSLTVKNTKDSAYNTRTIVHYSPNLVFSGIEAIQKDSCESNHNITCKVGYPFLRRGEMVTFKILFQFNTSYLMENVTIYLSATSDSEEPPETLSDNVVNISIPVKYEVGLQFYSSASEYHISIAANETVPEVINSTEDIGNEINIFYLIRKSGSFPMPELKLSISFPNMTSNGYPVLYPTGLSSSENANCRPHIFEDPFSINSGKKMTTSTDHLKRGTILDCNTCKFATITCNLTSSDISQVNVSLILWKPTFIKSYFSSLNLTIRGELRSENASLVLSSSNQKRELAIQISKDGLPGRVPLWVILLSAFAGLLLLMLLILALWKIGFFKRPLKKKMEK", "sequence (P05556 21-798, chain 2 of 2, further chain)": "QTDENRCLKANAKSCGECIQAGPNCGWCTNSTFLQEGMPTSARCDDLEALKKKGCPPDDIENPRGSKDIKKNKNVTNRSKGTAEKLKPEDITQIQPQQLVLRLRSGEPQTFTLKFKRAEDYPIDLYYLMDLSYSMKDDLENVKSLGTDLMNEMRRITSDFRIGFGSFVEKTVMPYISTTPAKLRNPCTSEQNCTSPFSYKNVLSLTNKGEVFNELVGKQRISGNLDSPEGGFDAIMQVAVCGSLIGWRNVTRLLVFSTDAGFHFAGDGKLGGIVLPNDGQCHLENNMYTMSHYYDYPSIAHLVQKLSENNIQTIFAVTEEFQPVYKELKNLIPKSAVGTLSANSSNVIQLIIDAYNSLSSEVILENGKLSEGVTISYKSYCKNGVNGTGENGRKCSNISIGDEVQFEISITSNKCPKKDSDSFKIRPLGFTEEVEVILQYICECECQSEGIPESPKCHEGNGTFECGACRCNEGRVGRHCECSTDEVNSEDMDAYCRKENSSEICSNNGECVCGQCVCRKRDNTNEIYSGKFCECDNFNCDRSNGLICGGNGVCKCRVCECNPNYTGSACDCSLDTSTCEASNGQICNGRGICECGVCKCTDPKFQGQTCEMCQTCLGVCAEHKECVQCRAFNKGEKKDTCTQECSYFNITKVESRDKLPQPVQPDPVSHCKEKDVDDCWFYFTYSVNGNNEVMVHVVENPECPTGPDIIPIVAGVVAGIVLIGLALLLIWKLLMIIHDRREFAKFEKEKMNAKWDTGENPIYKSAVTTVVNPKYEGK", "test": "inhibition of adhesion of α1K562 cells to immobilised collagen IV"}, "[2]": {"molecular_target": "α6β1 integrin (UniProt P23229)", "sequence (P23229 24-1130, chain 1 of 2)": "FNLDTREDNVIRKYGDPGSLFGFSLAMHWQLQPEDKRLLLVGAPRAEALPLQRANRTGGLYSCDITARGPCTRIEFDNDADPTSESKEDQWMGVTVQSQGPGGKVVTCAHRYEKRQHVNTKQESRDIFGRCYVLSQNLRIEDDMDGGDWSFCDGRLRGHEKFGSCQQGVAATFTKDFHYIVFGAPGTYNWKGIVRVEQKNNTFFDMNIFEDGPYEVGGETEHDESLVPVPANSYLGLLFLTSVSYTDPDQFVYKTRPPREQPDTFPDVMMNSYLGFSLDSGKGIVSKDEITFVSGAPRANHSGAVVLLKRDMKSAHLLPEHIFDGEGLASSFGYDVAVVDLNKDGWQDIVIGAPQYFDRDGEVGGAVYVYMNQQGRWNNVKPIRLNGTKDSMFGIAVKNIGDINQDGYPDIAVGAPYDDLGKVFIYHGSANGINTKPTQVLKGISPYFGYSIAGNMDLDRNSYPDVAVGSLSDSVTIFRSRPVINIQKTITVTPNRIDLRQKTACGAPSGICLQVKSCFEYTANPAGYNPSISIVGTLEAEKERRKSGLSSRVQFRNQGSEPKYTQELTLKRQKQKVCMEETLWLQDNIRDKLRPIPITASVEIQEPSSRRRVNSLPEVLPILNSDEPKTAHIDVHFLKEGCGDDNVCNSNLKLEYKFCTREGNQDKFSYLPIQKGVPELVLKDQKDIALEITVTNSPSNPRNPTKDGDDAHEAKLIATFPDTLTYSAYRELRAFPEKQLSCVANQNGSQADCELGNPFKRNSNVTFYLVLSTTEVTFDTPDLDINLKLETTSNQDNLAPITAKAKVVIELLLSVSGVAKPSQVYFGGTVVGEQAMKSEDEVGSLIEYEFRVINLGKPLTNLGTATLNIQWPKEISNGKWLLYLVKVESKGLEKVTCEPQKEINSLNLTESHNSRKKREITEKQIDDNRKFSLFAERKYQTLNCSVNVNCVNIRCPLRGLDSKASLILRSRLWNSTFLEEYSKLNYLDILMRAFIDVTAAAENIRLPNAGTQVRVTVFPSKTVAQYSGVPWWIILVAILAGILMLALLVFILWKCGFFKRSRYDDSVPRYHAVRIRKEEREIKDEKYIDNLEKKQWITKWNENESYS", "sequence (P05556 21-798, chain 2 of 2, further chain)": "as the sequence (P05556 21-798, chain 2 of 2, further chain) above", "test": "inhibition of adhesion of α6K562 cells to laminin"}}}
{"substance": "Ethylpyridylated obtustatin (EP-obtustatin) (peptide)", "values": [{"measurement": "IC50", "setting": "[1]", "value": 30, "unit": "µM"}]}
{"substance": "echistatin (from UniProt P17347 131-179) (peptide)", "values": [{"measurement": "IC50", "setting": "[2]", "value": "> 10", "unit": "µM"}]}
{"substance": "eristostatin (from UniProt P0C6S4 1-49) (peptide)", "values": [{"measurement": "IC50", "setting": "[2]", "value": "> 10", "unit": "µM"}]}
{"substance": "obtustatin (peptide)", "values": [{"measurement": "IC50", "setting": "[2]", "value": "> 10", "unit": "µM"}]}
{"substance": "viperisrastatin (peptide)", "values": [{"measurement": "IC50", "setting": "[2]", "value": "> 10", "unit": "µM"}]}
